The target of the experiment is chromatin fibers containing chemically produced H3K9me3 (histone octamers on 12 x 601 array DNA, DA1 or DA2 labelled) (human).

“Heterochromatin protein 1α (HP1α, CBX5) (from UniProt P45973 1-191) (natural protein)” returned a time constant of the increase of compaction (FRET, DA2) after injection of 1 μM HP1α into flow cells with H3K9me3-modified chromatin fibers of 1.1 s.

Source of the values: PMC5770380.
